Source: patent US20210132079A1 (UCB, published 2021)

How the values were obtained:
[1] = target: T1, human TNFα in complex with compound (2) (human, UniProt P01375 77-233); experiment: SPR BIAcore, compound-bound against apo TNFα
T1 construct: also called human TNFα + compound (2)

[2] = target: T2, human TNFα in complex with compound (1) (human, UniProt P01375 77-233); experiment: SPR BIAcore, compound-bound against apo TNFα
T2 construct: also called human TNFα + compound (1); TNFα-compound (1) complex
T2 sequence (P01375 77-233 limits assumed, one chain of several): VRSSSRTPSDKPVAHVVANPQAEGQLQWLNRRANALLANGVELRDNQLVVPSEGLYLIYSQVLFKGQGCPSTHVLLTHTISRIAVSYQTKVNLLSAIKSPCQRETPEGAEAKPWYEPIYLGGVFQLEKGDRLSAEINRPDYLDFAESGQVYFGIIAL

T1 sequence (P01375 77-233 limits assumed, one chain of several): as above

log selective binding against apo human TNFα [1]: > 2 log
log selective binding against apo human TNFα [2]: > 2 log
B1: CA185_01979 mouse IgG1 (mIgG1, kappa) (antibody, V domains shown)
VH: EVHLVESGPGLVKPSQSLSLTCSVTGYSITNSYWDWIRKFPGNKMEWMGYINYSGSTGYNPSLKSRISISRDTSNNQFFLQLNSITTEDTATYYCARGTYGYNAYHFDYWGRGVMVTVSS
VL: DIQMTQSPASLSASLEEIVTITCQASQDIGNWLSWYQQKPGKSPHLLIYGTTSLADGVPSRFSGSRSGTQYSLKISGLQVADIGIYVCLQAYSTPFTFGSGTKLEIKR
notes: also called CA185_01979.0; VR0001842
